# Starred links: 1 amine or outer side, 2 acyl side, 3 side chain; linkers in the order of their positions; H or OH if unused. Non-standard residues stand in square brackets, D forms with d. Groups on a side chain read outwards from the residue. Primed or numbered codes have the meaning given here. No end group written: not given here. *: point of attachment. Tyr(OMe) = COc1ccc(C[C@H](N[*:1])C(=O)[*:2])cc1; γGlu = O=C(O)[C@H](CCC(=O)[*:2])N[*:1]; Stearoyl = CCCCCCCCCCCCCCCCCC(=O)*; αMeF = C[C@](N)(Cc1ccccc1)C(=O)O; Myristoyl = CCCCCCCCCCCCCC(=O)*; αMeK = C[C@](N)(CCCCN)C(=O)O; Lauroyl = CCCCCCCCCCCC(=O)*; αMeS = C[C@](N)(CO)C(=O)O; Nle = CCCC[C@H](N)C(=O)O; PEG2′ = not defined here; Aib = CC(C)(N)C(=O)O
# T1: glucose-dependent insulinotropic peptide (gastric inhibitory polypeptide) receptor (GIPR), primary cAMP assay (human, UniProt P48546 22-466)
# T1 sequence (looked up): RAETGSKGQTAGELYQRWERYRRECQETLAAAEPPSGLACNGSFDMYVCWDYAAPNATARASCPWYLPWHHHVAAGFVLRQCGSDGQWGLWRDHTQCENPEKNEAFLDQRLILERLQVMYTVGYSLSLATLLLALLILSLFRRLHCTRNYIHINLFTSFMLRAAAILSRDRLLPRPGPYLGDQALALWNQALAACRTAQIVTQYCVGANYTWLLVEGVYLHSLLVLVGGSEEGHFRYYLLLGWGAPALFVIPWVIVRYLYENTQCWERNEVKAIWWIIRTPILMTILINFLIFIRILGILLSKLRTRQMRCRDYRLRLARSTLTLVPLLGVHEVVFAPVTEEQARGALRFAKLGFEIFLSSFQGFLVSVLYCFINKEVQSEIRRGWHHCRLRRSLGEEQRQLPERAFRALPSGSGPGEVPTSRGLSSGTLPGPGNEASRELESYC
# T2: GLP-1R in the INS1e assay (UniProt P32301 22-463, limits assumed)
# T2 sequence (looked up): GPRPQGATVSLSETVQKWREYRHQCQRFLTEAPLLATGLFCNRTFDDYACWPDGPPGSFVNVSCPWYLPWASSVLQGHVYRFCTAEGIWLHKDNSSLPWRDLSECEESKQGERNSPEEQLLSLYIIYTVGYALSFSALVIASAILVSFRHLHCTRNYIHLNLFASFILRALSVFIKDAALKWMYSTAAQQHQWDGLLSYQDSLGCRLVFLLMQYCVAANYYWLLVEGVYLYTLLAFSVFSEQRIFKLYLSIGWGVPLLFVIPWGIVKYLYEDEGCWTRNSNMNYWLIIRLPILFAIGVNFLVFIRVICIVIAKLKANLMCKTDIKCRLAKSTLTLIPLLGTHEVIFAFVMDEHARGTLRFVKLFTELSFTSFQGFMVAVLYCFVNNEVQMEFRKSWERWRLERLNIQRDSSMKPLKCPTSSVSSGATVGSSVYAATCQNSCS
# Target: GLP-1 receptor (GLP-1R), primary cAMP assay (human, UniProt P43220 24-463)
# Assay: cell-based or functional assay
Primary assay EC50 (cAMP) Mean [nM],"Primary assay EC50 (cAMP), n1 [nM]","Primary assay EC50 (cAMP), n2 [nM]",Binder
0.0089,0.00996,0.00789,H[Aib]EGS[αMeF]TSDV[αMeS]SK([PEG2′-PEG2′-γGlu-Myristoyl])LEGEAA[αMeK]E[αMeF]IAK([PEG2′-PEG2′-γGlu-Myristoyl])VVEGG-NH2 [SEQ ID NO: 408]
0.187,0.248,0.126,H[Aib]EGS[αMeF]TSDV[αMeS]SK([PEG2′-PEG2′-γGlu-Stearoyl])LEGEAA[αMeK]E[αMeF]IAK([PEG2′-PEG2′-γGlu-Stearoyl])VVEGG-NH2 [SEQ ID NO: 410]
0.0039,0.00405,0.00366,H[Aib]EGS[αMeF]TSDV[αMeS]SK([PEG2′-PEG2′-γGlu-Lauroyl])LEGEAA[αMeK]E[αMeF]IAK([PEG2′-PEG2′-γGlu-Lauroyl])VVEGG-NH2 [SEQ ID NO: 405]

# The next lines start with the binder.
Binder,Primary assay EC50 (cAMP) Mean [nM],"Primary assay EC50 (cAMP), n1 [nM]","Primary assay EC50 (cAMP), n2 [nM]"
H[Aib]EGS[αMeF]TSDV[αMeS]SK([PEG2′-PEG2′-γGlu-Lauroyl])LEGEAA[αMeK]E[Nle]IAK([PEG2′-PEG2′-γGlu-Lauroyl])VVEGG-NH2 [SEQ ID NO: 407],0.002,0.00196,0.00201
H[Aib]EGS[αMeF]TSDV[αMeS]SYK([PEG2′-PEG2′-γGlu-Lauroyl])EGEAA[αMeK]EFIAWK([PEG2′-PEG2′-γGlu-Lauroyl])VEGG-NH2 [SEQ ID NO: 270],0.0329,0.0293,0.0365
H[Aib]EGS[αMeF]TSDV[αMeS]SK([PEG2′-PEG2′-γGlu-Lauroyl])LEGEAA[αMeK]E[Tyr(OMe)]IAK([PEG2′-PEG2′-γGlu-Lauroyl])VVEGG-NH2 [SEQ ID NO: 406],0.0023,0.00219,0.00231

# Target: glucagon receptor (GCGR), primary cAMP assay (human, UniProt P47871 26-477)
# Assay: cell-based or functional assay
# Chain of glucagon receptor (GCGR), primary cAMP assay (P47871 26-477): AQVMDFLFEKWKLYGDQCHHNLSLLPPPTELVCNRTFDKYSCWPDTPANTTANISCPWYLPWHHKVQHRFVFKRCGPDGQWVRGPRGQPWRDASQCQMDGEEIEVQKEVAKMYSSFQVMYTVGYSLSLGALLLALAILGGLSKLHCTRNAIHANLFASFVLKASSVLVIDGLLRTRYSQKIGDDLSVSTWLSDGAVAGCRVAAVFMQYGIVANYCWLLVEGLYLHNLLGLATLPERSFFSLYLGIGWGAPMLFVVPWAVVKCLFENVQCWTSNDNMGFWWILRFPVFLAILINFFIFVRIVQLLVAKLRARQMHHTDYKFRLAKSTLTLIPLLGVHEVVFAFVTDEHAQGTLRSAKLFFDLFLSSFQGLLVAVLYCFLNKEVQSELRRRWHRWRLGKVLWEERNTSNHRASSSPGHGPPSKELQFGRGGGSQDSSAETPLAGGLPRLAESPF
"Primary assay EC50 (cAMP), n1 [nM]","Primary assay EC50 (cAMP), n2 [nM]",Binder
21.5,21.5,H[Aib]EGS[αMeF]TSDV[αMeS]SK([PEG2′-PEG2′-γGlu-Myristoyl])LEGEAA[αMeK]E[αMeF]IAK([PEG2′-PEG2′-γGlu-Myristoyl])VVEGG-NH2 [SEQ ID NO: 408]
21.5,21.5,H[Aib]EGS[αMeF]TSDV[αMeS]SK([PEG2′-PEG2′-γGlu-Stearoyl])LEGEAA[αMeK]E[αMeF]IAK([PEG2′-PEG2′-γGlu-Stearoyl])VVEGG-NH2 [SEQ ID NO: 410]
21.5,21.5,H[Aib]EGS[αMeF]TSDV[αMeS]SK([PEG2′-PEG2′-γGlu-Lauroyl])LEGEAA[αMeK]E[αMeF]IAK([PEG2′-PEG2′-γGlu-Lauroyl])VVEGG-NH2 [SEQ ID NO: 405]

# Second part, the binder before the results:
Binder,"Primary assay EC50 (cAMP), n1 [nM]","Primary assay EC50 (cAMP), n2 [nM]"
H[Aib]EGS[αMeF]TSDV[αMeS]SK([PEG2′-PEG2′-γGlu-Lauroyl])LEGEAA[αMeK]E[Nle]IAK([PEG2′-PEG2′-γGlu-Lauroyl])VVEGG-NH2 [SEQ ID NO: 407],21.5,21.5
H[Aib]EGS[αMeF]TSDV[αMeS]SYK([PEG2′-PEG2′-γGlu-Lauroyl])EGEAA[αMeK]EFIAWK([PEG2′-PEG2′-γGlu-Lauroyl])VEGG-NH2 [SEQ ID NO: 270],22.3,22.3
H[Aib]EGS[αMeF]TSDV[αMeS]SK([PEG2′-PEG2′-γGlu-Lauroyl])LEGEAA[αMeK]E[Tyr(OMe)]IAK([PEG2′-PEG2′-γGlu-Lauroyl])VVEGG-NH2 [SEQ ID NO: 406],21.5,21.5

# Target: T1, glucose-dependent insulinotropic …
# Assay: cell-based or functional assay
"Primary assay EC50 (cAMP), n1 [nM]","Primary assay EC50 (cAMP), n2 [nM]",Binder
21.5,21.5,H[Aib]EGS[αMeF]TSDV[αMeS]SK([PEG2′-PEG2′-γGlu-Myristoyl])LEGEAA[αMeK]E[αMeF]IAK([PEG2′-PEG2′-γGlu-Myristoyl])VVEGG-NH2 [SEQ ID NO: 408]
21.5,21.5,H[Aib]EGS[αMeF]TSDV[αMeS]SK([PEG2′-PEG2′-γGlu-Stearoyl])LEGEAA[αMeK]E[αMeF]IAK([PEG2′-PEG2′-γGlu-Stearoyl])VVEGG-NH2 [SEQ ID NO: 410]
21.5,21.5,H[Aib]EGS[αMeF]TSDV[αMeS]SK([PEG2′-PEG2′-γGlu-Lauroyl])LEGEAA[αMeK]E[αMeF]IAK([PEG2′-PEG2′-γGlu-Lauroyl])VVEGG-NH2 [SEQ ID NO: 405]

# Further lines, the binder ahead of its results:
Binder,"Primary assay EC50 (cAMP), n1 [nM]","Primary assay EC50 (cAMP), n2 [nM]"
H[Aib]EGS[αMeF]TSDV[αMeS]SK([PEG2′-PEG2′-γGlu-Lauroyl])LEGEAA[αMeK]E[Nle]IAK([PEG2′-PEG2′-γGlu-Lauroyl])VVEGG-NH2 [SEQ ID NO: 407],21.5,21.5
H[Aib]EGS[αMeF]TSDV[αMeS]SYK([PEG2′-PEG2′-γGlu-Lauroyl])EGEAA[αMeK]EFIAWK([PEG2′-PEG2′-γGlu-Lauroyl])VEGG-NH2 [SEQ ID NO: 270],22.3,22.3
H[Aib]EGS[αMeF]TSDV[αMeS]SK([PEG2′-PEG2′-γGlu-Lauroyl])LEGEAA[αMeK]E[Tyr(OMe)]IAK([PEG2′-PEG2′-γGlu-Lauroyl])VVEGG-NH2 [SEQ ID NO: 406],21.5,21.5

# Target: T2, GLP-1R in the INS1e assay
# Assay: cell-based or functional assay
INS1e assay EC50 (cAMP) Mean [nM],INS1e assay EC50 (cAMP) n1 [nM],INS1e assay EC50 (cAMP) n2 [nM],Binder
0.412,0.376,0.448,H[Aib]EGS[αMeF]TSDV[αMeS]SK([PEG2′-PEG2′-γGlu-Myristoyl])LEGEAA[αMeK]E[αMeF]IAK([PEG2′-PEG2′-γGlu-Myristoyl])VVEGG-NH2 [SEQ ID NO: 408]
0.78,0.698,0.862,H[Aib]EGS[αMeF]TSDV[αMeS]SK([PEG2′-PEG2′-γGlu-Stearoyl])LEGEAA[αMeK]E[αMeF]IAK([PEG2′-PEG2′-γGlu-Stearoyl])VVEGG-NH2 [SEQ ID NO: 410]
0.116,0.11,0.121,H[Aib]EGS[αMeF]TSDV[αMeS]SK([PEG2′-PEG2′-γGlu-Lauroyl])LEGEAA[αMeK]E[αMeF]IAK([PEG2′-PEG2′-γGlu-Lauroyl])VVEGG-NH2 [SEQ ID NO: 405]

# Continued, binder first:
Binder,INS1e assay EC50 (cAMP) Mean [nM],INS1e assay EC50 (cAMP) n1 [nM],INS1e assay EC50 (cAMP) n2 [nM]
H[Aib]EGS[αMeF]TSDV[αMeS]SK([PEG2′-PEG2′-γGlu-Lauroyl])LEGEAA[αMeK]E[Nle]IAK([PEG2′-PEG2′-γGlu-Lauroyl])VVEGG-NH2 [SEQ ID NO: 407],0.104,0.113,0.0952
H[Aib]EGS[αMeF]TSDV[αMeS]SYK([PEG2′-PEG2′-γGlu-Lauroyl])EGEAA[αMeK]EFIAWK([PEG2′-PEG2′-γGlu-Lauroyl])VEGG-NH2 [SEQ ID NO: 270],1.72,1.41,2.02
H[Aib]EGS[αMeF]TSDV[αMeS]SK([PEG2′-PEG2′-γGlu-Lauroyl])LEGEAA[αMeK]E[Tyr(OMe)]IAK([PEG2′-PEG2′-γGlu-Lauroyl])VVEGG-NH2 [SEQ ID NO: 406],0.094,0.101,0.0872

# — patent publication US20200079833A1 (AstraZeneca / MedImmune, published 2020)
